Our source for the Km and kcat values is doi:10.1101/2023.11.29.569174v1.

Common to all, as to experiment: purified protein
Substrate in data set [1]: CC(C)=CCOP(=O)(O)OP(=O)(O)O
The settings on record: pH 8.0, 22 °C, 10 mM Mg acetate, 40 mM NaCl, 0.01% Tween 20.

Substrate in data set [2]: CC(C)=CCC/C(C)=C/COP(=O)(O)OP(=O)(O)O
The following applies: pH 8.0, 22 °C, 10 mM Mg acetate, 40 mM NaCl, 0.01% Tween 20.

Substrate in data set [3]: Nc1nc2c(ncn2[C@H]2C[C@H](O)[C@@H](COP(=O)(O)OP(=O)(O)OP(=O)(O)O)O2)c(=O)[nH]1
The settings on record: pH 8.0, 22 °C, 10 mM Mg acetate, 40 mM NaCl.

Substrate in data set [4]: C=C(C)CCO[P@@](=O)(O)OP(=O)(O)O
The following applies: pH 8.0, 22 °C, 10 mM Mg acetate, 40 mM NaCl, 0.01% Tween 20.

Substrate in data set [5]: CC(C)=CCC/C(C)=C/CC/C(C)=C/CO[P@@](=O)(O)OP(=O)(O)O
The following applies: pH 8.0, 22 °C, 10 mM Mg acetate, 40 mM NaCl, 0.01% Tween 20.

Substrate in data set [6]: C[C@@](O)(CCOP(=O)(O)OP(=O)(O)O)CC(=O)O
The following applies: pH 8.0, 22 °C, 10 mM Mg acetate, 40 mM NaCl, 0.01% Tween 20.

Substrate in data set [7]: CC(C)=CCC/C(C)=C/CC/C(C)=C/CC/C(C)=C/COP(=O)(O)OP(=O)(O)O
The settings on record: pH 8.0, 22 °C, 10 mM Mg acetate, 40 mM NaCl, 0.01% Tween 20.

B1: NUDT15 (Homo sapiens) (protein)
chain: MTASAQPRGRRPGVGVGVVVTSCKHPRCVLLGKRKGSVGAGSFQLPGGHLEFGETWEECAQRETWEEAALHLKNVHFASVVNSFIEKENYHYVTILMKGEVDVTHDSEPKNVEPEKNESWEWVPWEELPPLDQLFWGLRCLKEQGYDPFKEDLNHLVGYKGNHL
As for B1, the Michaelis-Menten constant (Km) in “purified protein [1]” is given as 159.3 ± 40.5 µM; in “purified protein [2]”, 18.7 ± 0.2 µM; in the data set “purified protein [3]”, 21 µM; in the data set “purified protein [4]”, 63.6 ± 19.4 µM. Further, the turnover number (kcat) is 0.94 s⁻¹ in “purified protein [1]”, 0.72 s⁻¹ in “purified protein [2]”, 0.637 s⁻¹ in the data set “purified protein [3]” and 0.49 s⁻¹ in the data set “purified protein [4]”.

B2: NUDT18 (Homo sapiens) (protein)
chain: MASEGLAGALASVLAGQGSSVHSCDSAPAGEPPAPVRLRKNVCYVVLAVFLSEQDEVLLIQEAKRECRGSWYLPAGRMEPGETIVEALQREVKEEAGLHCEPETLLSVEERGPSWVRFVFLARPTGGILKTSKEADAESLQAAWYPRTSLPTPLRAHDILHLVELAAQYRQQARHPLILPQELPCDLVCQRLVATFTSAQTVWVLVGTVGMPHLPVTACGLDPMEQRGGMKMAVLRLLQECLTLHHLVVEIKGLLGLQHLGRDHSDGICLNVLVTVAFRSPGIQDEPPKVRGENFSWWKVMEEDLQSQLLQRLQGSSVVPVNR
Turning to B2, the Km in the data set “purified protein [1]” was found to be 9.8 ± 2.9 µM; in the data set “purified protein [5]”, 18.8 ± 3.9 µM; in the data set “purified protein [2]”, 3.7 ± 0.4 µM; in the data set “purified protein [6]”, 26.8 ± 2.8 µM; in the data set “purified protein [7]”, 17.9 ± 3.4 µM; in the data set “purified protein [4]”, 12.4 ± 2.6 µM. In addition, the kcat in the data set “purified protein [1]” is 0.94 s⁻¹; in “purified protein [5]”, 0.52 s⁻¹; in “purified protein [2]” it was 0.78 s⁻¹; in the data set “purified protein [6]” it was 0.55 s⁻¹; in the data set “purified protein [7]”, 0.15 s⁻¹; in “purified protein [4]” it was 0.87 s⁻¹.

The term Km denotes the substrate concentration at which the rate is half of its maximum. A word on the kcat: it is the number of substrate molecules converted per active site and unit of time at saturation.
